Measurements from publication PMC8921914.

What was measured:
FcRn = FcRn (UniProt P55899); assay: SPR
FcγRI = FcγRI (UniProt P12314); assay: SPR
Chain of UniProt P12314 (P12314 16-374): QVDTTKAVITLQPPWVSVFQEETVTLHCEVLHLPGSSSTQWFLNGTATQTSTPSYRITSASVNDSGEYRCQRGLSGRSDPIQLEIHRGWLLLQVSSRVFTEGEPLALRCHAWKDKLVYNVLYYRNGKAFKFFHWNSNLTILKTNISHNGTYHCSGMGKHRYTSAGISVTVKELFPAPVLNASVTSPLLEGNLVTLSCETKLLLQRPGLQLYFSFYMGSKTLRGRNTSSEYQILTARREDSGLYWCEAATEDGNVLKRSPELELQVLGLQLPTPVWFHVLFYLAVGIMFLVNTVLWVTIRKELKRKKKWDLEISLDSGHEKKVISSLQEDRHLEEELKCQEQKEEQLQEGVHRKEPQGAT

Chain of UniProt P55899 (P55899 whole entry, looked up, tested part not stated): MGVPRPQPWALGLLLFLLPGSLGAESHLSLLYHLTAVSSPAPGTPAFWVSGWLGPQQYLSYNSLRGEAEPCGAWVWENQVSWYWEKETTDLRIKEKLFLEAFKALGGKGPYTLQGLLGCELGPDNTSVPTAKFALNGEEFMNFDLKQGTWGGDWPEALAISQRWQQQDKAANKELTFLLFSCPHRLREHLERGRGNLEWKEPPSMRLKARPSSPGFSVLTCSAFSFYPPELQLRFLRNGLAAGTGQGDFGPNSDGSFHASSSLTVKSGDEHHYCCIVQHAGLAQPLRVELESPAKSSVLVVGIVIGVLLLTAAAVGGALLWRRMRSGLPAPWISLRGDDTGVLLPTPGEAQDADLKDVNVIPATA

Kd (FcRn): > 1 mM
Kd (FcγRI): > 1 mM
Substance: CLN-049 (bispecific antibody)
